# Results reported in the supplement of paper PMC9170038.
# Tested on: MS2 coat protein
# Assay: apparent KD of MS2 coat protein; designed switch direction (-1 OFF switch, 1 ON switch): 1; higher = weaker reporter binding
# How it was run: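 Stalled E. coli RNA polymerase transcribed designed RNA switches on Illumina chips, which were then titrated with SNAP-549-labelled MS2 coat protein, doubling from 0.7 or 1.5 nM to 3 µM. Steps lasted from 0.8–1.5 h at the lowest concentration to 10–20 min at the highest. The apparent KD is each design's median over clusters of curve-fitted normalised fluorescence.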
# [1] = input ligand: microRNA oligo, concentration not stated
# [2] = Eterna round: R95, input ligand: FMN 200 uM
# [3] = Eterna round: R95, input ligand: microRNA oligo, concentration not stated
# [4] = Eterna round: R95, input ligand: none
Sequence,apparent KD of MS2 coat protein (input ligand: FMN 200 uM),apparent KD of MS2 coat protein [1],apparent KD of MS2 coat protein (input ligand: none),apparent KD of MS2 coat protein [2],apparent KD of MS2 coat protein [3],apparent KD of MS2 coat protein [4]
"GUGGUCAGACAUGAGGAUCACCCAUGUGGAAUAAAUAACGUACAGGAUAUUCAAUAUAGGAUAUAGAAGAAGGGUAGAUUGGUG (Eterna round: R96, puzzle: Same State NG 3)",196 nM,136 nM,195 nM,,,
AGUCUACGGUGACGUAGACAGUGGUGCGUACAUGAGGAUCACCCAUGUCAUGUGAGAGUUACUUGUUCGUCUUGAGC [SENSOR #4] (puzzle: Sensor for hsa-mir-208a),,,,20.7 nM,21.7 nM,22.6 nM
"UUGAAGAAUUAAGGAUAUUGAAUACAUAUGUUUAACAUGAGGAUCACCCAUGUGGGUUGCGGUAUCGAGAAGGUAAAUAAAUAG [Mat - Same State NG 2 - JL mod - D3] (Eterna round: R96, puzzle: Same State NG 2)",169 nM,110 nM,159 nM,,,
"GUGGUCAGACAUGAGGAUCACCCAUGUGGAAUAAAUAAGGAGAAGGAUAUUUAAUAUAGGAUAUAAAAGAAGGUCUGGUUGGUG (Eterna round: R96, puzzle: Same State NG 3)",99.4 nM,55.6 nM,92.5 nM,,,
"CCGAUUUAUGGAGGAUAUGGAGCCUUAUUGGCUCCAGAAGGUCAAUACAUGAGGAUCACCCAUGUGUCGGCGGUCAAUAGACCG [Eli NG1ss - 72] (Eterna round: R96, puzzle: Same State NG 1)",61.7 nM,44.2 nM,128 nM,,,
"GUAGCAUACCGAGGAUAUUCAUAUUAUAAACAUGAGGAUCACCCAUGUGGCCGAUUACGGCCUUGGGAGAAGGCGGAAUGCUAC [Xeonanis - 20 Mod17] (Eterna round: R96, puzzle: Same State NG 2)",44.6 nM,641 nM,909 nM,,,
"UUACGUACGUAUGAGGAUAUCCAUAAUAAGACAUGAGGAUCACCCAUGUAAACAAAACAAUAAUGGGAGAAGGCAUACGUACGAA [Mat - Same state - Malcolm Mod - D135] (Eterna round: R96, puzzle: Same State 2)",,53 nM,,,,
AGUCCAGCCUGAGCUGGACAAAAGCAUGUACAUGAGGAUCACCCAUGUUCAUGUACAAGCUUUUUGCUCGUCUUAUG [salish99_208a_r3_051] (puzzle: Sensor for hsa-mir-208a),,,,1040 nM,17 nM,634 nM
"ACAUGAGACGGAGGAUAUUUUGUACCUACAUGUGACAUGAGGAUCACCCAUGUGGUAAGUAUGAGAAAGAAGGCCGAGAUAUGU [Equivalence 19 - Jieux - Same State NG 2] (Eterna round: R96, puzzle: Same State NG 2)",14.2 nM,17.7 nM,29.6 nM,,,
"GGAAAGAGGUAAGGAUAUGCAUGGCUGGGACAUGAGGAUCACCCAUGUUAUAGAAGAAAUCUAGGGUAGAAGGUACAAGGAAGG [AK SSNG2-V2-9.1] (Eterna round: R96, puzzle: Same State NG 2)",464 nM,199 nM,455 nM,,,
"AAAGGAUGAUGUUACAUGAGGAUCACCCAUGUAGUGAUAACUAAGGAUAUGUGUUAAACCAGUUAAUAGAAGGUAGGAUCAUUA [AK SSNG3-V2-6] (Eterna round: R96, puzzle: Same State NG 3)",43.8 nM,35.1 nM,49.4 nM,,,
AACAAUCUUUCUGAGGAUAUCAUGAAAUAAACAUGAGGAUCACCCAUGUGCAGGAAAACUGCAUAUGAGAAGGCAGAUAGAUUGA [salish99_ss2_r3_024] (puzzle: Same State 2),,,,43.3 nM,414 nM,1220 nM
"GCUCGCACGAUGACCCACAUGAGGAUCACCCAUGUGUGUGGGUAGGAUAUCUAUAUUAAGGAUUUAGAGAAGGGCCGAGCGAGC [SameState NG3 #22] (Eterna round: R96, puzzle: Same State NG 3)",450 nM,419 nM,578 nM,,,
"UUUGCAUGACGAGGAUAUCAUUUAUUUCUUGAUUGAGAAGGCGUUCUUUUUAAUACCUAACAUGAGGAUCACCCAUGUGACAGU [JR_SSNG1_Sub047] (Eterna round: R96, puzzle: Same State NG 1)",,13.1 nM,,,,
AAUUAACAUGAGGAUCACCCAUGUCGUAUUAUGGGAGGAUAUACGUGGACCGUAGUCCGCGUAGAAGGCCUAAUUA [Mat - Same State 1 - Mod of JL - D21] (puzzle: Same State 1),,,,,34.6 nM,
"AUUUUUAAUGCAGGAUAUGAUUAACAUGAGGAUCACCCAUGUGGUGUUGUGAGUAAGGAGAGUGAUCAGAAGGGCAUCUUUUCA [SS-NG2-LRO02] (Eterna round: R96, puzzle: Same State NG 2)",679 nM,216 nM,372 nM,,,
"GGGAGAGACGGAGGAUAUGGAGGGAGAUAGAGACUAGAAGGUUGGACAUGAGAAUCGAACAUGAGGAUCACCCAUGUUGGGAGG [iteri-2] (Eterna round: R96, puzzle: Same State NG 1)",61.5 nM,33.7 nM,56.7 nM,,,
"UUAAUGAUGUAAGGAUAUACAUGAGGAAAUCUCGUAGAAGGUACAGGACAUGAGGAUCACCCAUGUGUCGCUCAGAAGAGCGUA [Mat - Same State NG 1 - JL mod - D18] (Eterna round: R96, puzzle: Same State NG 1)",86.3 nM,39.6 nM,71.2 nM,,,
UAAAUACAUGAGGAUCACCCAUGUCAAAAGACAUGAGGAUAUGUACAGACUUCGGUCUGUACAGAAGGCAUGAAAA [salish99_ss1_r3_095] (puzzle: Same State 1),,,,43.6 nM,708 nM,890 nM
"GAAGACAUAGUUCAGGAUAUAGGAAUAGUCACAUGAGGAUCACCCAUGUGCAUUUAUAUGCGCACUUAGAAGGGAGGUAGUUAUC [SameState2 Malc#23] (Eterna round: R96, puzzle: Same State 2)",39.4 nM,29.4 nM,39.4 nM,,,
AAAGCACAUGAGGAUCACCCAUGUGGAAAUAACACAGGAUAUCCGGCCGAAAAUACGGUGGGAGAAGGGUGACCUA [Inxetemama] (puzzle: Same State 1),,,,302 nM,60.4 nM,86.7 nM
